{"source": "patent US20240166767A1", "about": "(SCIRHOM, published 2024)", "target": "T1, endogenous human iRhom1 (RH-30 cells) (human, UniProt Q96CC6 1-855)", "T1 construct": "RH-30 cells are described as endogenously negative for iRhom2 but endogenously expressing iRhom1; also called iRhom1 endogenously expressed by RH-30 cells", "T1 sequence": "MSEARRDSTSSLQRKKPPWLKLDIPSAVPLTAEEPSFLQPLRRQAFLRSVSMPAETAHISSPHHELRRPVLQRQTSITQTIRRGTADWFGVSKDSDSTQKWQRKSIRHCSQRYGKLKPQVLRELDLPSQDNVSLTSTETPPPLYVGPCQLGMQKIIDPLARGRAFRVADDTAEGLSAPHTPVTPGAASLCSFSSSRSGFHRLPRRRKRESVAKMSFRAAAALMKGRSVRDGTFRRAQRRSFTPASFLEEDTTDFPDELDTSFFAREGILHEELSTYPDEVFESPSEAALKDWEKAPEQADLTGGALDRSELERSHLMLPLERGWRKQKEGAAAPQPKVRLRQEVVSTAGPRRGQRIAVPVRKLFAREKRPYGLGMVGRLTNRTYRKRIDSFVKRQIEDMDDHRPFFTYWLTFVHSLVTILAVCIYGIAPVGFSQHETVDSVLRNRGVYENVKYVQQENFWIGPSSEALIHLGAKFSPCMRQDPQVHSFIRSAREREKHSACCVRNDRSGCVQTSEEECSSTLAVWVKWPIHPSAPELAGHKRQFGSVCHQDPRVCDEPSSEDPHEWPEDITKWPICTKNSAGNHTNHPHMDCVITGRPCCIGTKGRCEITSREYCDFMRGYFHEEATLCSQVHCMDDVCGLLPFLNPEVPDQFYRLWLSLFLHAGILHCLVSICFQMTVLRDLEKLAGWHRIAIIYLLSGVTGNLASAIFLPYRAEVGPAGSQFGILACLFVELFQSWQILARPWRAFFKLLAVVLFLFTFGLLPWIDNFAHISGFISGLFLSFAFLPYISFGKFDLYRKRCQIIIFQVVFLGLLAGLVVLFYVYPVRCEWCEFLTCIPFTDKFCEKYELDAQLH", "assay": "FACS on RH-30 cells (endogenously negative for iRhom2, endogenously expressing iRhom1)", "procedure": "In brief, human RPMI-8226 cells (Deutsche Sammlung von Mikroorganismen und Zellkulturen, Germany), THP-1 cells (American Type Culture Collection, USA) and RH-30 cells (Deutsche Sammlung von Mikroorganismen und Zellkulturen, Germany) were harvested with 10 mM EDTA in PBS, washed and resuspended in FACS buffer (PBS, 3% FBS, 0.05% sodium azide), and seeded in Nunc U-bottom 96-well plates (Thermo Fisher Scientific, USA) at approximately 2×10⁵ cells per well. In order to pellet cells and remove supernatants, the plates were centrifuged at 1,500 rpm and 4° C. for 3 minutes. For primary staining, cells were resuspended in 100 μl per well of either FACS buffer alone (controls) or […] of the antibodies of the invention in FACS buffer and incubated on ice for 1 hour. Afterwards, plates were centrifuged at 1,500 rpm and 4° C. for 3 minutes and washed twice with 200 μl per well of FACS buffer. For secondary staining, cells were spun down and resuspended in 100 μl per well of PE-conjugated goat anti-human IgG F(ab′)2 detection fragment (Dianova, Germany) diluted 1:100 in FACS buffer. Protected from light, the cell suspensions were incubated on ice for 1 hour. […] Finally, cells were resuspended in 150 μl per well of FACS buffer and analyzed using a BD Accuri™ C6 Plus flow cytometer (Becton Dickinson, Germany).", "data": [{"binder": "humanized antibody 42-B-02 (antibody, V domains shown, Tested as whole humanized antibody from transient expression of heavy chain/kappa light chain pairs in CHO cells, detected with anti-human IgG; the general methods speak of human IgG1/Kappa; also called clone 42-B-02) VH: QVTLRESGPALVKPTQTLTLTCTFSGFSLSTFGRGVGWIRQPPGKALEWLAHIWWDDEKYYNSALKSRLTISKDTSKNQVVLTITNMDPVDTATYYCARIQNYGSNYWYFDVWGQGTLVTVSS VL: AIQLTQSPSSLSASVGDRVTITCRASSRISYMFWYQQKPGKAPKVLIYDTSNLASGVPSRFSGSGSGTDYTLTISSLQPEDFATYYCQQWNSYPLTFGQGTKLEIK", "values": [{"measurement": "binding result", "result": "no binding (tested: 3 µg/ml)"}]}]}
